# Measured values published in patent US20110318348A1 (NATIONAL RESEARCH COUNCIL OF CANADA, published 2011).
# B1: sdAb BSA16 (VHH)
# VHH: QVKLEESGGGLVQAGGSLRLSCAPSGRTFRTWRMGWFRQAPGKEREFVAAINLNTGNTYYVDSVKGRFTISGDYAKNTLYLQMNSLKPEDTAVYFCAARSPDSDYVPLSSIDYQYWGQGTQVTVSS
# B2: sdAb BSA8 (VHH)
# VHH: QVKLEESGGGLAQAGGSLRLSCAASERTFIRYTIGWFRQAPGKEREFVGRVNWSGGDTYYADSVKGRFTISRDNAKTTVTLQMSSLKPEDTAVYSCAASPKWSEIPREYIYWGPGTQVTVSS
# B3: sdAb BSA12 (VHH, part only)
# VHH: QVKLEESGGGLVQVGDSLRLSCAASGRTFSNYTMAWFRQFPGKEREFVAVVSRGGGATDYADSVKGRFTISRDNAKNTMYLQMNSLKTDTAVYYCAAGTDLSYYYSTKKWAYWGQGTQVTVSS
# modifications: c-Myc and 6xHis tags
# Tests used:
# [1] = biological target: T1, bovine serum albumin (bovine, UniProt P02769 25-607); experiment: SPR (Biacore 3000), BSA immobilized on CM5, 1:1 model; SE 2.2 × 10^4 in r14c3
# T1 construct: also called BSA
# Protocol: (§1) 1700 RUs of BSA (Sigma) were immobilized on research grade CM5-sensorchip (BIACORE). Ethanolamine blocked surface was used as a reference. Immobilizations were carried out at the protein concentrations of 50 μg/ml in 10 mM acetate pH4.5 using amine coupling kit supplied by the manufacturer. Antibodies were passed through Superdex 75 (GE Healthcare) column to separate monomer prior to BIACORE analysis.
# (§2) In all instances, analyses were carried out at 25° C. in HBS-E buffer (10 mM HEPES, 150 mM NaCl and 3 mM EDTA, pH7.4) supplemented with 0.005% surfactant P20 at a flow rate of 20 ul/min. The surfaces were regenerated with 100 mM HCl (3 seconds). Data were analyzed with BIAevaluation 4.1 software.
# [2] = biological target: T1, bovine serum albumin; experiment: SPR (Biacore 3000), BSA immobilized on CM5, 1:1 model; SE 1.1 × 10^-8 in r14c5
# Protocol: as §1, §2
# [3] = biological target: T1, bovine serum albumin; experiment: SPR (Biacore 3000), BSA immobilized on CM5, 1:1 model; SE 5.4 × 10^-3 in r14c4
# Protocol: as §1, §2
# [4] = biological target: T1, bovine serum albumin; experiment: SPR (Biacore 3000), BSA immobilized on CM5; estimated, no 1:1 fit
# Protocol: as §1, §2
# [5] = biological target: T1, bovine serum albumin; experiment: SPR (Biacore 3000), BSA immobilized on CM5; profiles did not fit a 1:1 model
# Protocol: as §1, §2
# [6] = biological target: T1, bovine serum albumin; experiment: SPR (Biacore 3000), BSA immobilized on CM5, 4 h dissociation time; SE 3 × 10^-8 in r12c4
# [7] = biological target: T1, bovine serum albumin; experiment: SPR (Biacore 3000), BSA immobilized on CM5
# [8] = biological target: T1, bovine serum albumin; experiment: SPR (Biacore 3000), BSA immobilized on CM5, extended dissociation
# [9] = biological target: T1, bovine serum albumin; experiment: SPR (Biacore 3000), BSA immobilized on CM5, calculated from ka and kd
# [10] = biological target: T1, bovine serum albumin; experiment: SPR (Biacore 3000), BSA immobilized on CM5, 1:1 model; SE 3.2 × 10^3 in r12c3
# T1 sequence (P02769 25-607 limits assumed): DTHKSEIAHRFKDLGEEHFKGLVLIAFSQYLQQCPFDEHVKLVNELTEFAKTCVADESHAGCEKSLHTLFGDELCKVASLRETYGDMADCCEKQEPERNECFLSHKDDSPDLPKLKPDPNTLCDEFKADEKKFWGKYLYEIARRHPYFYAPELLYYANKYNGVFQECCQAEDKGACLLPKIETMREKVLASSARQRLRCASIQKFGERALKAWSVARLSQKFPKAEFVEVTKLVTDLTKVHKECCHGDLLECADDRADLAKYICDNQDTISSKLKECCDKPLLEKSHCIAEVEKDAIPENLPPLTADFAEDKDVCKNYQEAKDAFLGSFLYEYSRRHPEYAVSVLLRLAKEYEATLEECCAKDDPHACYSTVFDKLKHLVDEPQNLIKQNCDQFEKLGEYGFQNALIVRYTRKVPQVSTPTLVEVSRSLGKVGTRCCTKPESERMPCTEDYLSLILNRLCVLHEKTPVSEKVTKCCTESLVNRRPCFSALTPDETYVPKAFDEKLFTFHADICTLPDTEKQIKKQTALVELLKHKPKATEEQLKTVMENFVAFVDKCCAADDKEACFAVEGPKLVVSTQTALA
binder,measurement,setting,value
B1,kon,[1],1e+06 M⁻¹ s⁻¹
same,Kd,[2],280 nM
same,koff,[3],0.27 s⁻¹
B2,Kd,[4],~100 nM
same,koff,[5],0.005 s⁻¹
B3,koff,[6],9e-06 s⁻¹
same,binding capacity (RU),[7],150 RU
same,koff,[8],1e-05 s⁻¹
same,Kd,[9],0.004 nM
same,kon,[10],2.5e+06 M⁻¹ s⁻¹
